Test results: publication PMC10195879
Where two headings read alike, the source gives them in different places.

Assays:
[1] = target: GMPCPP-stabilized microtubules (bovine brain tubulin, TAMRA-labeled) (bovine) (UniProt Q6B856); assay: single-molecule TIRF microscopy
[2] = target: GMPCPP-stabilized microtubules (bovine brain tubulin, TAMRA-labeled) (bovine) (UniProt Q6B856); assay: single-molecule TIRF microscopy; remark: listed apart in the source

Sequence of His-EGFP-L-TOG2-S (minimal construct of CLASP2α: short linker region, TOG2 domain and serine-arginine-rich region) (domain or fragment) (O75122 whole entry, the tested form may be a part): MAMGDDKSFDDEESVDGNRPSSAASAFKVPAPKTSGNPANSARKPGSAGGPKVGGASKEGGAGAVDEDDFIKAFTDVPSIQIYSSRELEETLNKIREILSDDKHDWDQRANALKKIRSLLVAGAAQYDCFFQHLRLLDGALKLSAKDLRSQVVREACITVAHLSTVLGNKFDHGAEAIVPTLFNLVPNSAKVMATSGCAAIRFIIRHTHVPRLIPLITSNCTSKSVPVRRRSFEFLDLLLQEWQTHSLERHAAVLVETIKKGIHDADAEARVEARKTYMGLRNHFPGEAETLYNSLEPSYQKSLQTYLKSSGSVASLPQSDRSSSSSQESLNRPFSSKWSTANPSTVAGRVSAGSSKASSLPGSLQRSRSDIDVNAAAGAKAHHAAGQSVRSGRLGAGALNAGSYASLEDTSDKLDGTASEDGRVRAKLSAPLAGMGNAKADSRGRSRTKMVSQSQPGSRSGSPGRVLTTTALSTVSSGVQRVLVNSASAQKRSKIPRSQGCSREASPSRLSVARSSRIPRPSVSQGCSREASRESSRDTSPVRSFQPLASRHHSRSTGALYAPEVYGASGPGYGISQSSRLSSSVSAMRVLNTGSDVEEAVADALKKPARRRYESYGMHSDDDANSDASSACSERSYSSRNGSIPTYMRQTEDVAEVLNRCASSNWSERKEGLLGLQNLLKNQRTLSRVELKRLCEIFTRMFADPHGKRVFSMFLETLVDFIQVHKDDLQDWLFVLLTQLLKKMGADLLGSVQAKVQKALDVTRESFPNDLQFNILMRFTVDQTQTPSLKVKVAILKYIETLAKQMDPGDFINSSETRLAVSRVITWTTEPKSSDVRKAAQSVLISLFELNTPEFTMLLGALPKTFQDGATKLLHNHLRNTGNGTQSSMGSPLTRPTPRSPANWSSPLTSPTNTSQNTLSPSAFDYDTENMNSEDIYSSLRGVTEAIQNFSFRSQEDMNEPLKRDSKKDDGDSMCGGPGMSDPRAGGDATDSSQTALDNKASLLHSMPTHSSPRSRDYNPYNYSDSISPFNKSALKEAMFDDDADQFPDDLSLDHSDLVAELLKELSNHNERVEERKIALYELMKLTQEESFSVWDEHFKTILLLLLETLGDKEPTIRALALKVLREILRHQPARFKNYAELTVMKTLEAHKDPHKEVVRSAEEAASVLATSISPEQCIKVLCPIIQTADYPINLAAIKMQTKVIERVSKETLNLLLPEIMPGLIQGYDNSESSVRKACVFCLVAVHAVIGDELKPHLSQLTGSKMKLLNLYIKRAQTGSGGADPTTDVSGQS

Substance “His-EGFP-L-TOG2-S (minimal construct of CLASP2α: short linker region, TOG2 domain and serine-arginine-rich region) (domain or fragment)” has a mean dwell time on microtubule ends [1] of 3.8 s and a mean dwell time on microtubule ends [2] of 0.53 s.
